Tests used:
[1] = target: Leishmania tarentolae PP1-8e, endogenously HA-tagged; test: co-IP (anti-protein A affinity resin, Western blot band quantification); details: parent: 1; read off a plot
[2] = target: LtPP1-8e CΔ11 (final 11 amino acids deleted), Pd-tagged (Leishmania tarentolae); test: co-IP; L. tarentolae cell extract; Pd-tagged PP1 (overexpressed from pSNSAP1) held on IgG Sepharose beads, 4 h at 4 °C, washed three times in PA-150 buffer; endogenously HA-tagged PNUTS detected by anti-HA Western blot; %IP relative to WT PP1-8e
[3] = target: LtPP1-8e 109–134Δ (26 amino acid insertion deleted), Pd-tagged (Leishmania tarentolae); test: as above
[4] = target: LtPP1-8e 359 to 362A, Pd-tagged (Leishmania tarentolae); test: as above
[5] = target: LtPP1-8e D290A, Pd-tagged (Leishmania tarentolae); test: as above
[6] = target: LtPP1-8e CΔ23 (23 amino acid C-terminal extension deleted), Pd-tagged (Leishmania tarentolae); test: as above
[7] = target: LtPP1-8e I217A, Pd-tagged (Leishmania tarentolae); test: as above
[8] = target: LtPP1-8e 354–358A, Pd-tagged (Leishmania tarentolae); test: as above
[9] = target: LtPP1-8e I360A, Pd-tagged (Leishmania tarentolae); test: as above
[10] = target: LtPP1-8e 263–265A, Pd-tagged (Leishmania tarentolae); test: as above
[11] = target: LtPP1-8e 109–114A (GGVFG to alanine), Pd-tagged (Leishmania tarentolae); test: as above
[12] = target: LtPP1-8e F305A, Pd-tagged (Leishmania tarentolae); test: as above
[13] = target: LtPP1-8e D292A, Pd-tagged (Leishmania tarentolae); test: as above
[14] = target: LtPP1-8e with ^310DHK^312 mutated to alanine, Pd-tagged (Leishmania tarentolae); test: as above
[15] = target: LtPP1-8e with ^260LP^261 mutated to alanine, Pd-tagged (Leishmania tarentolae); test: as above
[16] = target: Leishmania tarentolae PNUTS, endogenously HA-tagged; test: co-IP (PP1-8e-Pd pull-down, Western blot band quantification); details: parent: 1; read off a plot
[17] = target: Leishmania tarentolae PNUTS, endogenously HA-tagged; test: co-IP (anti-protein A affinity resin, Western blot band quantification); details: parent: 1; read off a plot
[18] = target: LtPNUTS R94A, Pd-tagged (Leishmania tarentolae); test: co-IP; L. tarentolae cell extract; Pd-tagged PNUTS (overexpressed from pSNSAP1) held on IgG Sepharose beads, 4 h at 4 °C, washed three times in PA-150 buffer; endogenously HA-tagged PP1-8e, JBP3 or Wdr82 detected by anti-HA Western blot; %IP relative to WT PNUTS
[19] = target: LtPNUTS L111A, Pd-tagged (Leishmania tarentolae); test: as above
[20] = target: LtPNUTS D101A, Pd-tagged (Leishmania tarentolae); test: as above
[21] = target: LtPNUTS V97A, Pd-tagged (Leishmania tarentolae); test: as above

Leishmania tarentolae PNUTS, Pd-tagged (WT, full-length) F118A
ratio to parent [1]: 0.22

Leishmania tarentolae PNUTS, Pd-tagged (WT, full-length) H114A; V115A
ratio to parent [1]: 0.17

Leishmania tarentolae PNUTS, Pd-tagged (WT, full-length) K95A
ratio to parent [1]: 1

Leishmania tarentolae PNUTS, Pd-tagged (WT, full-length) R125A
ratio to parent [1]: 0.92

Leishmania tarentolae PNUTS, Pd-tagged (WT, full-length) W99A
ratio to parent [1]: 0.08

Leishmania tarentolae PNUTS, endogenously HA-tagged (natural protein)
percent reduction of co-IP against WT PP1-8e [2]: 30% | percent reduction of co-IP against WT PP1-8e [3]: 80% | percent reduction of co-IP against WT PP1-8e [4]: 80% | percent reduction of co-IP against WT PP1-8e [5]: 50% | percent loss of co-IP against WT PP1-8e [6]: 80% | percent reduction of co-IP against WT PP1-8e [7]: 50% | percent reduction of co-IP against WT PP1-8e [8]: 50% | percent reduction of co-IP against WT PP1-8e [9]: 80% | percent reduction of co-IP against WT PP1-8e [10]: 90% | percent reduction of co-IP against WT PP1-8e [11]: 80% | percent reduction of co-IP against WT PP1-8e [12]: 80% | percent reduction of co-IP against WT PP1-8e [13]: 60% | percent decrease of co-IP against WT PP1-8e [14]: 20% | percent of co-IP lost against WT PP1-8e [15]: 80%

Leishmania tarentolae PP1-8e, Pd-tagged (WT) D116A; K118A; K119A; R121A
ratio to parent [16]: 0.79

Leishmania tarentolae PP1-8e, Pd-tagged (WT) D265A
ratio to parent [16]: 0.51

Leishmania tarentolae PP1-8e, Pd-tagged (WT) F307A
ratio to parent [17]: 0

Leishmania tarentolae PP1-8e, Pd-tagged (WT) I346A
ratio to parent [17]: 0.025

Leishmania tarentolae PP1-8e, Pd-tagged (WT) R314A
ratio to parent [17]: 0.01

Leishmania tarentolae PP1-8e, Pd-tagged (WT) S126A; D129A; D130A; Y133A; S134A
ratio to parent [16]: 0.84

Leishmania tarentolae PP1-8e, Pd-tagged (WT) T348A
ratio to parent [17]: 0.82

Leishmania tarentolae PP1-8e, Pd-tagged (WT) Y96A
ratio to parent [17]: 0.68

Leishmania tarentolae PP1-8e, endogenously HA-tagged (enzyme)
percent reduction of co-IP against WT PNUTS [18]: 50% | percent reduction of co-IP against WT PNUTS [19]: 80% | percent reduction of co-IP against WT PNUTS [20]: 80% | fold decrease of co-IP against WT PNUTS [21]: 5 fold

Reference: publication PMC10731240
